Where a chain is given by its changes, count along the chain named.
B1: CTIR2-10 (antibody, human IgG1, kappa, V domains shown)
VH: EVQLVQSGAEVKKPGASVKVSCKASGYTFRGYAMHWVRQAPGQGLEWMGWINPRSGVTEFPQKFQGRVTMTRDTSITTAYMDLSRLRSDDTAVYYCARESGDDAFDIWGQGTMVTVSS
VL: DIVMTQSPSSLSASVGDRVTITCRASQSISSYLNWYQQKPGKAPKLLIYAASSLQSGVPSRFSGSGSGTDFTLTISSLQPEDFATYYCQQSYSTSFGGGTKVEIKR
notes: CDR-shuffled IgG
B2: Abcs50 (antibody, human IgG1, kappa, V domains shown)
VH: B1 VH with R30T, A33Y, R54K, S55N, V57D
VL: DIVMTQSPSSLSASVGDRVTITCRASQSISSYLNWYQQKPGKAPKLLIYAASSLQYGVPSRFSGSGSGTDFTLTISSLQPEDFATYYCQQSYSTSFGGGTKVEIKR
notes: chain-shuffled IgG
B3: CTIR2-13 (antibody, human IgG1, kappa, V domains shown)
VH: B1 VH with N52D, S55T, V57L, E59K
VL: B2 VL with S28K
notes: CDR-shuffled IgG
B4: CTIR2-6 (antibody, human IgG1, kappa, V domains shown)
VH: B1 VH with R30T, A33Y, R54K, V57A, E59N
VL: B2 VL with S28K, Y56S, Y92V, S93G, T94L, S95F
notes: CDR-shuffled IgG
B5: CTIR2-9 (antibody, human IgG1, kappa, V domains shown)
VH: B1 VH with R30T, A33Y, R54K, V57A, E59N
VL: B2 VL with S28K, Y92V, S93G, T94L, S95F
notes: CDR-shuffled IgG
B6: Abcs12 (antibody, human IgG1, kappa, V domains shown)
VH: B1 VH with R30T, A33Y, S55N, V57I, E59S
VL: B2 VL with Y56S, Y92L, S93E, T94L, S95G
notes: chain-shuffled IgG; also called Abes12
B7: Ab3 (antibody, human IgG1, kappa, V domains shown)
VH: B1 VH with R30T, A33Y, R54K, V57A, E59N
VL: B2 VL with S28K, Y56S
notes: full-length human IgG
B8: Ab40 (antibody, human IgG1, kappa, V domains shown)
VH: B1 VH with R30T, A33Y, R54N, V57A, E59N
VL: B2 VL with Y56S, Y92L, S93E, T94L, S95G
notes: full-length human IgG
B9: Ab29 (antibody, human IgG1, kappa, V domains shown)
VH: B1 VH with R30T, A33Y, W50A, N52D, R54K, V57T, E59M
VL: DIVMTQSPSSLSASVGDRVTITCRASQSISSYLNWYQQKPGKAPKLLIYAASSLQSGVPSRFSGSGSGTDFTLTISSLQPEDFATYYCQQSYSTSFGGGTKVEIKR
notes: full-length human IgG
B10: Ab32 (antibody, human IgG1, kappa, V domains shown)
VH: B1 VH with R30T, A33Y, W50A, N52D, R54K, S55L, V57I, E59I
VL: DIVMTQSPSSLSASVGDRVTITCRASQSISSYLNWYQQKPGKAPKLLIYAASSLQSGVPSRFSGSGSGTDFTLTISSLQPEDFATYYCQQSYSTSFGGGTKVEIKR
notes: full-length human IgG
B11: Ab22 (antibody, human IgG1, kappa, V domains shown)
VH: B1 VH with R30T, A33Y, V57A, E59N
VL: B2 VL
notes: full-length human IgG

These binders were tested against T1, Human ROBO2 overexpressed on HEK293 cells (human, UniProt Q9HCK4 22-1378) (assay: flow cytometry, Geo MFI ROBO2/ROBO1 HEK293 cells, 2.5 µg/ml).
T1 construct: also called ROBO2 cells; native ROBO2
T1 sequence: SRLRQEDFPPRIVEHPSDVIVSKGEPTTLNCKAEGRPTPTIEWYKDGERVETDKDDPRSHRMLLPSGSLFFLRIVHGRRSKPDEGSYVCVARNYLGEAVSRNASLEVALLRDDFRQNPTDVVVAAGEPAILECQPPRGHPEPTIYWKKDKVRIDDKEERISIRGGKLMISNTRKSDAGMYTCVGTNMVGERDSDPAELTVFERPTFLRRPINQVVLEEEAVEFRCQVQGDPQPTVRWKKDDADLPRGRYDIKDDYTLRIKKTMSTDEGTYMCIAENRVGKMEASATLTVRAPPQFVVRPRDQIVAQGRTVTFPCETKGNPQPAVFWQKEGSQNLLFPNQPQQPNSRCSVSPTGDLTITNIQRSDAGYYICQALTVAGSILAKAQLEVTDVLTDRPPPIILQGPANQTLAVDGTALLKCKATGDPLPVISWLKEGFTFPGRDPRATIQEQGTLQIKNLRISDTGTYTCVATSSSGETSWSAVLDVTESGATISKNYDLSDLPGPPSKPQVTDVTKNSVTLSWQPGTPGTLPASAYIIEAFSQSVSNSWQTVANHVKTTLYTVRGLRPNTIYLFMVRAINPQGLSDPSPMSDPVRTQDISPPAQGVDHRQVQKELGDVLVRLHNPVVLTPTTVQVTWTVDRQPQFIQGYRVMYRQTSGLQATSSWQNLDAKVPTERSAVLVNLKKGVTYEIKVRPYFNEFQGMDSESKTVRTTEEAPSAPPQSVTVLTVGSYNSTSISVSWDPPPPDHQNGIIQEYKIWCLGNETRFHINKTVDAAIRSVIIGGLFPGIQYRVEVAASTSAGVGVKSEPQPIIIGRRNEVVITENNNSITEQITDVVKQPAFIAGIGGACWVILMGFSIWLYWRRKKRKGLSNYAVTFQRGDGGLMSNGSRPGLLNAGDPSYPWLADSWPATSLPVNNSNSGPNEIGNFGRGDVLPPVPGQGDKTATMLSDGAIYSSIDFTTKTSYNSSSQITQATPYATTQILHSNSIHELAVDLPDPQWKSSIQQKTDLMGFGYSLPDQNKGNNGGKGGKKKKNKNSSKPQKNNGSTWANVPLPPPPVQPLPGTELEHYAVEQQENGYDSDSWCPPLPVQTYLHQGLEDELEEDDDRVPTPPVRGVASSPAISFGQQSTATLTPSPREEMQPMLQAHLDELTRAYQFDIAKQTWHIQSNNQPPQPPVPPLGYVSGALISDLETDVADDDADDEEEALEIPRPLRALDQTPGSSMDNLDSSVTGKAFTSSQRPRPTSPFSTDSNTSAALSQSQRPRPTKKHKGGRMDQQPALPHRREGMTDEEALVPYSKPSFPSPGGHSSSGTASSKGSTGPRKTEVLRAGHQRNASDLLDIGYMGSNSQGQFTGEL
Method: (§1) Binding of the antibodies was detected using a secondary fluorochrome conjugated anti-human IgG F(ab′)₂ antibody and samples were analyzed on a Fortessa cytometer (BD Biosciences). The fold ROBO2 selectivity was calculated as the geometric mean fluorescence intensity (Geo MFI) with ROBO2 cells/Geo MFI with ROBO1 cells. A fold change higher than 3 was considered to be ROBO2 specific (Table 2, Fold Selectivity). Some affinity matured clones had increased ROBO1 reactivity, for example Abcs 55, CTI-R2-10 and CTIR2-13.
(§2) HTRF assays were run with 5 nM d2-labeled SLIT2-N and antibodies were added at 1 nM. […] Antibodies derived from chain (Abcs series) or CDR shuffling (CTIR-2 series) were evaluated in 11-point, 5-fold dilution series with a top concentration of 1500 nM, N.T. = not tested; ^cFold selectivity was calculated as Geometric Mean Fluorescent Intensity (Geo MFI) of ROBO2/Geo MFI of ROBO1 binding. […] Outcomes: results are listed in order of assays listed in the table (left to right), I.A. = Improved Affinity
B1 was tested, and the “Fold Selectivity for ROBO2/ROBO1” value was 2.3 fold.
With B2 the “Fold Selectivity for ROBO2/ROBO1” value was 3.9 fold.
For B3, the “Fold Selectivity for ROBO2/ROBO1” value was 2.3 fold.
For B4, the “Fold Selectivity for ROBO2/ROBO1” value was 35 fold.
For B5, the “Fold Selectivity for ROBO2/ROBO1” value was 14.8 fold.
With B6 the “Fold Selectivity for ROBO2/ROBO1” value was 15.7 fold.

Each binder was assayed against T1, Human ROBO2 overexpressed on HEK293 … (assay: flow cytometry, Geo MFI ROBO2/ROBO1 HEK293 cells, 0.1 µg/ml).
Method: as §1, §2
B7 was tested, and the “Fold Selectivity for ROBO2/ROBO1” value was 92 fold.
For B8, the “Fold Selectivity for ROBO2/ROBO1” value was over 100 fold.
With B9 the “Fold Selectivity for ROBO2/ROBO1” value was over 100 fold.
For B10, the “Fold Selectivity for ROBO2/ROBO1” value was 90.3 fold.
In the case of B11, the “Fold Selectivity for ROBO2/ROBO1” value is reported as 67.4 fold.

The binders below were run against T2, Terbium (Tb) labeled-SNAP tagged ROBO2 expressed on HEK293 cells (Homo sapiens (Human), UniProt Q9HCK4 22-1378, terbium label on the SNAP tag) (assay: HTRF competition, competitor d2-SLIT2-N, ROBO2 HEK293 cells).
T2 construct: also called Tb-labeled ROBO2 cells; ROBO2 expressing cells; not shown: SNAP tag
T2 sequence: T1 sequence
Method: (§3) Antibodies generated as a result of the affinity maturation campaign were screened by numerous assays for neutralization of SLIT2-N binding, selective binding to ROBO2 over ROBO1, and inhibition of SLIT2-N functional activity (see Table 2). A ROBO2-SLIT2-N homogenous time resolved fluorescence (HTRF) assay was used to identify antibodies that were capable of blocking SLIT2-N binding to ROBO2. In this assay, terbium (Tb) labeled-SNAP tagged ROBO2 expressing HEK293 cells were incubated with 5 nM d2-labeled SLIT-2N in the presence of 1 nM anti-ROBO2 antibodies for 1 hour. After incubation, fluorescence at 665 nm and 620 nm was measured on an Envision multilabel plate reader. […] Maximal signal was defined as the HTRF ratio of Tb-labeled ROBO2 cells with d2-labeled SLIT2-N in the absence of antibody, the minimum signal was defined as the HTRF ratio of Tb-labeled ROBO2 expressing HEK293 cells only. One nanomolar (nM) parental antibody, 93H2, was unable to block the HTRF assay, therefore this concentration was selected to identify clones with a higher affinity than 93H2 (Table 2, HTRF Ratio column). […] Antibodies derived from chain (Abcs series) or CDR shuffling (CTIR-2 series) were evaluated in 11-point, 5-fold dilution series with a top concentration of 1500 nM (Table 2 HTRF IC₅₀).
With B7 the IC50 was 133 pM.
In the case of B8, the IC50 is reported as 728 pM.
B1 was tested, and the IC50 was 40 pM.
With B9 the IC50 was 97 pM.
In the case of B10, the IC50 is reported as 234 pM.
Binder B2 has an IC50 of 51 pM.
Binder B11 has an IC50 of 229 pM.
With B3 the IC50 was 55 pM.
B4 was tested, and the IC50 was 67 pM.
In the case of B5, the IC50 is reported as 64 pM.
Binder B6 has an IC50 of 32 pM.

Each binder was assayed against T2, Terbium (Tb) labeled-SNAP tagged ROBO2 … (assay: HTRF, 5 nM d2-SLIT2-N on Tb-SNAP-ROBO2 HEK293 cells, 1 nM antibody).
Method: as §3, with “In” for “Antibodies generated as a result of the affinity maturation campaign were screened by numerous assays for neutralization of SLIT2-N binding, selective binding to ROBO2 over ROBO1, and inhibition of SLIT2-N functional activity (see Table 2). A ROBO2-SLIT2-N homogenous time resolved fluorescence (HTRF) assay was used to identify antibodies that were capable of blocking SLIT2-N binding to ROBO2. In”
HTRF assays were run with 5 nM d2-labeled SLIT2-N and antibodies were added at 1 nM. […] Antibodies derived from chain (Abcs series) or CDR shuffling (CTIR-2 series) were evaluated in 11-point, 5-fold dilution series with a top concentration of 1500 nM, N.T. = not tested; ^cFold selectivity was calculated as Geometric Mean Fluorescent Intensity (Geo MFI) of ROBO2/Geo MFI of ROBO1 binding.
With B7 the “HTRF Ratio” value was 6610.
In the case of B8, the “HTRF Ratio” value is reported as 7430.
For B1, the “HTRF Ratio” value was 3920.
With B9 the “HTRF Ratio” value was 7730.
B10 was tested, and the “HTRF Ratio” value was 6000.
B2 was tested, and the “HTRF Ratio” value was 2710.
For B11, the “HTRF Ratio” value was 5730.
B3 was tested, and the “HTRF Ratio” value was 3530.
For B4, the “HTRF Ratio” value was 4160.
In the case of B5, the “HTRF Ratio” value is reported as 3540.
B6 was tested, and the “HTRF Ratio” value was 2910.

Each binder was assayed against T3, Human ROBO1 RSK mutant overexpressed on HEK293 cells (human, UniProt Q9Y6N7 26-1651) (assay: flow cytometry, Geo MFI ROBO1-RSK/ROBO2-KSR HEK293 cells, 2.5 µg/ml).
T3 construct: K137R and R139K already in the entry; also called ROBO1-RSK cells
T3 sequence (Q9Y6N7 other isoform, or with tags, fused parts or gaps mutant limits assumed): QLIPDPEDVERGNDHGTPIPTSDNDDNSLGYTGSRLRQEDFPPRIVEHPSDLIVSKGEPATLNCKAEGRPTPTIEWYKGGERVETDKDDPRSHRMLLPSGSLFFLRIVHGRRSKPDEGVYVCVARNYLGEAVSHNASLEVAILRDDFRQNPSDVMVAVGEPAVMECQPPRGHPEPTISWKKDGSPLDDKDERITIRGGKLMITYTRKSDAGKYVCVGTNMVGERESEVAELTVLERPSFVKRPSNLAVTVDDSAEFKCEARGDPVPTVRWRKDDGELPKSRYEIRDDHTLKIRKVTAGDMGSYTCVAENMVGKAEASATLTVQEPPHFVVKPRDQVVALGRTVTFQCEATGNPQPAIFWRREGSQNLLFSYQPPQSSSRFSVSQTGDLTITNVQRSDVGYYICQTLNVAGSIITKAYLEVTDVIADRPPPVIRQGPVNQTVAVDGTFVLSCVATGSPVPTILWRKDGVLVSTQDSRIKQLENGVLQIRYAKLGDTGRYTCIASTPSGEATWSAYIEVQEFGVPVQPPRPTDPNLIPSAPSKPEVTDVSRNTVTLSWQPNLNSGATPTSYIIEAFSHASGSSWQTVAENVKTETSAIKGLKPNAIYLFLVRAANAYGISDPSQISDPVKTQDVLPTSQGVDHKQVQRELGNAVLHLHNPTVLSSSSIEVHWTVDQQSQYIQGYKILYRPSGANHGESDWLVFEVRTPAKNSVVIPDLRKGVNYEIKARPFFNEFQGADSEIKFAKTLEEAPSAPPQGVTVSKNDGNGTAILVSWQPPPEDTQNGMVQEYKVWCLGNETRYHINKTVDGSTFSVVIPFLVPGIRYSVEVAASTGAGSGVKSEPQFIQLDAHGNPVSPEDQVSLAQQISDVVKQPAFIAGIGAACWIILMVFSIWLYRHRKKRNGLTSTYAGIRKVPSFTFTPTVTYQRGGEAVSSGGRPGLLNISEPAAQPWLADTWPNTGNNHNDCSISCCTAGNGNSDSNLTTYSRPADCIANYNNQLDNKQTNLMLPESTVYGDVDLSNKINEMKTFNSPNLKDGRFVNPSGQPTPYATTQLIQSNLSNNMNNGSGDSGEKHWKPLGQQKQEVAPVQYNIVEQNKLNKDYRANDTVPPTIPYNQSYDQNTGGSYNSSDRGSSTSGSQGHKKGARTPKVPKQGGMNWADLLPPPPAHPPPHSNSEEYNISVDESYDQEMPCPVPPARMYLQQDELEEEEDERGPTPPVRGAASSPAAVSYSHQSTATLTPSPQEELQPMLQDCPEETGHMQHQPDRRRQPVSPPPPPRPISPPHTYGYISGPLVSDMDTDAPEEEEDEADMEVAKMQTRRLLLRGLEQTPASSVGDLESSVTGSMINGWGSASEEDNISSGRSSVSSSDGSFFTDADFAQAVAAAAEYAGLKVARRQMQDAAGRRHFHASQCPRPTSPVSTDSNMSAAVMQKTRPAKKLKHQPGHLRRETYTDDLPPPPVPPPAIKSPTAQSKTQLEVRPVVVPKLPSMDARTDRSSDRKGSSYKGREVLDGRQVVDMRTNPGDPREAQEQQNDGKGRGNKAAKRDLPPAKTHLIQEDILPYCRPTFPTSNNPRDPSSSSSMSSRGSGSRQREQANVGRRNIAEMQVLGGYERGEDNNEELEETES
For B1, the “Fold Selectivity for RSK/KSR” value was 1.4 fold.
With B2 the “Fold Selectivity for RSK/KSR” value was 1.3 fold.
With B3 the “Fold Selectivity for RSK/KSR” value was 2.5 fold.
B4 was tested, and the “Fold Selectivity for RSK/KSR” value was over 100 fold.
In the case of B5, the “Fold Selectivity for RSK/KSR” value is reported as over 100 fold.
B6 was tested, and the “Fold Selectivity for RSK/KSR” value was over 100 fold.

Source: patent publication US20200157212A1 (Pfizer, published 2020)
